Reference: publication PMC4918640

Biological target: extracellular domain of PDGFRα-Fc conjugated (human) (UniProt P16234)
Experiment: SPR + BLI

Chain of UniProt P16234 (P16234 24-528): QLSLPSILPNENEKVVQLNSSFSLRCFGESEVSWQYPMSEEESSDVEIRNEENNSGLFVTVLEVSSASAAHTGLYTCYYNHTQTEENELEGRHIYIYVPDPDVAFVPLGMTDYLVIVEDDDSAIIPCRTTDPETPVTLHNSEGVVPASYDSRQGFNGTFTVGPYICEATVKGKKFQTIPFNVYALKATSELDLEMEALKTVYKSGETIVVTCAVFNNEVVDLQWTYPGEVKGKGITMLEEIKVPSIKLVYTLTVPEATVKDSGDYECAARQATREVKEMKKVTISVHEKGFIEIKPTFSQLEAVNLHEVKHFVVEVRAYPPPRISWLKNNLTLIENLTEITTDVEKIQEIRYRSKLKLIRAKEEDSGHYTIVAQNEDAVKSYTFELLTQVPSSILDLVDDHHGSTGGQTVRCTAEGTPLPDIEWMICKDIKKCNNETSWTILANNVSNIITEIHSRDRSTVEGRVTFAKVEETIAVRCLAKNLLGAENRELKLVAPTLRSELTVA

Which Kd does the source give for “soluble gHgLgO trimer (from UniProt P16832;P16750) (complex)” here?
Its Kd is 2 nM.
